System: MS2 coat protein
Assay: apparent KD of MS2 coat protein; designed switch direction (-1 OFF switch, 1 ON switch): -1; higher = weaker reporter binding
In short: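 On Illumina chips, designed RNA switches with common flanks were made by stalled E. coli RNA polymerase. Titrations with SNAP-549-labelled MS2 coat protein, doubling from 0.7 or 1.5 nM to 3 µM, were done with no input, with 200 uM small-molecule ligand, or with an oligonucleotide input. Apparent KD is the median per design over clusters, from curve fits of normalised cluster fluorescence.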

[1] = Eterna round: R95, input ligand: microRNA oligo, concentration not stated
[2] = Eterna round: R95, input ligand: FMN 200 uM
[3] = Eterna round: R95, input ligand: none
[4] = input ligand: microRNA oligo, concentration not stated

Sequence	apparent KD of MS2 coat protein (input ligand: FMN 200 uM) [nM]	apparent KD of MS2 coat protein (input ligand: none) [nM]	also measured
UGAGAGCAAGGAUAUACGUUGGUGUAUACCCGGGUAUGUAUACAUGAGGAUCACCCAUGUAGAAGGUGCACAAA [EX2 B.1] (Eterna round: R97, puzzle: Exclusion 2)	120	36	–
AGCCUACAUGAGGAUCACCCAUGUCAGGAUAUCUCGCGACGUGUCGGGUUCACGUUGCAGAGAAGGGACUCGGG [Estibera] (puzzle: Exclusion 1)	–	–	apparent KD of MS2 coat protein [1]: 46.4 nM
AGUACUAACACGAUAGUGUUAGUACUAUAAGCUUGUGUUACAUGAGGAUCACCCAUGUCCUCAUAAGCUCGUCUUAU [Mat - Sensor v3 - Turn-off var 2 - D78] (puzzle: Sensor v3, turn-off variant 2)	–	–	apparent KD of MS2 coat protein [2]: 95.6 nM; apparent KD of MS2 coat protein [1]: 118 nM; apparent KD of MS2 coat protein [3]: 101 nM
AAAAGUUAAGGAUAUACAGGGAGCCGCGGCGUCUGGCCGCAACAUGAGGAUCACCCAUGUAGAAGGUAGCCAAA [Maatmaso] (puzzle: Exclusion 2)	–	–	apparent KD of MS2 coat protein [2]: 61.5 nM; apparent KD of MS2 coat protein [1]: 20.6 nM; apparent KD of MS2 coat protein [3]: 30.5 nM
GCAGCAAACCCAAUUAAAACCACAUGAGGAUCACCCAUGUCUCAGGAUAUGGUCUGGAUUACAGGCCAGAAGGGAGAAAGCUGC [Eli exng3 - 052] (Eterna round: R96, puzzle: Exclusion NG 3)	16.2	17.7	apparent KD of MS2 coat protein [4]: 10.7 nM
AAAUAGGCAGGAUAUACAUGAGGAUCACCCAUGUAAAUUUUUCGUUUAACUUGAAUGUGUAGAAGGGCCAUAAA [Ex3 #54] (Eterna round: R97, puzzle: Exclusion 3)	27.4	26.8	–
UGAUCACAUGAGGAUCACCCAUGUCAGGAUAUCUACAUUGAAGCCUCGGCUUCAAUGUAGAGAAGGGACAUAAU [E1/3-B2] (Eterna round: R97, puzzle: Exclusion 1)	33.2	71.1	–
ACAUGUUGUCCAUGAUAUUACAUGAGGAUCACCCAUGUUAUUGCGAUUUUGAUGUGUAAGUUUGUUGCUCGUCUUAU [JR_STOV1_Sub062] (Eterna round: R97, puzzle: Sensor, turn-off variant 1)	29.6	32.6	–
CCCGGGUUUGUGAGGAUAUCGGGCCCGAAAGGGCCCGAGAAGGCACAUGAGGAUCACCCAUGUAAGGGCCCGGG [-42.9, -40.9 kcal, A 23%, 0-5cbis] (Eterna round: R97, puzzle: Brourd's mod of Exclusion 4)	29.3	26.1	–
AAAAAACAAGGAUAUACGGAUGAAGAUUGUCUUAAUUUUUGACAUGAGGAUCACCCAUGUAGAAGGUGUUAAAA [JR_Exclusion2_Sub016] (puzzle: Exclusion 2)	–	–	apparent KD of MS2 coat protein [1]: 158 nM
GAUGGACAUGAGGAUCACCCAUGUAAGGAUAUUGAUUGUGGCUAUAAAUAGUUACGGUCAAGAAGGUACUCGUC [-21.6, -18.6 kcal, A 31%] (Eterna round: R97, puzzle: Exclusion 1)	128	161	–
CAGUACUGAGGAUAUACAUGAGGAUCACCCAUGUGUUUUCUACUAGGAAACUAGGUAUGUAGAAGGCAGUACUG [Omei Ex3 Mod of Eli 4.27 v3] (Eterna round: R97, puzzle: Exclusion 3)	194	22.9	–
UGUCAGAUGGUAGGAUAUCCAUAUUGAGUGACCCUUUCAUAACAUGAGGAUCACCCAUGUCGGUGGGAGAAGGGCCGUAUGGUG [salish99_ExNG02_R04_028] (Eterna round: R96, puzzle: Exclusion NG 2)	53.7	33.8	apparent KD of MS2 coat protein [4]: 21.9 nM
GCCUCGUCAGGAUAUCUCCACGUGAGCAAGGCUCACGGGCCAGAGAAGGGACUUGAGGAUCACCCAAGUAAAAC [Ritiatso] (Eterna round: R97, puzzle: Exclusion 4)	428	138	–
GGUAUAUGAGGAUAUAGAUUCCUCGACAUGAGGAUCACCCAUGUAAGAUUGGGCCUAGAACUAGAAGGCGUGGCUU [Eternabot (L1) Solution 77] (Eterna round: R97, puzzle: Exclusion 5)	72.1	128	–
CGUGAGUCAGGAUAUGCCUGUACUAACUUGAGGAUCACCCAAGUGUCCUCCCGGUGCAAUGCAGAAGGGACGACGA [Oninlein] (Eterna round: R97, puzzle: Exclusion 5)	765	74.2	–
AGCAUGGUAGGAUAUACGGAGCAUUAGGGUUUGUUAUGUGGACAUGAGGAUCACCCAUGUAGAAGGGCCGUGCA [Mat - Exclusion 2 - Mod of JL - D82] (puzzle: Exclusion 2)	–	–	apparent KD of MS2 coat protein [1]: 32.6 nM
AAUGUGUGAGGAUAUUAAUUGUAAUUGAAUAGAAUUAUGAUUGAGAAGGCACAUGAGGAUCACCCAUGUUCCAA [JR_Ex4_Sub082] (Eterna round: R97, puzzle: Exclusion 4)	187	31.2	–

Sequence	apparent KD of MS2 coat protein (input ligand: FMN 200 uM) [nM]	apparent KD of MS2 coat protein (input ligand: none) [nM]	also measured
CGAUCACAUGAGGAUCACCCAUGUGAGGAUAUAAUAACGCGGCGUGAGCACGGGAAUUUUAGAAGGCACACGGU [Eternabot (Original) Solution 42] (Eterna round: R97, puzzle: Exclusion 1)	14.2	13	–
UUUUAACAUGAGGAUCACCCAUGUGAGGAUAUCGUAUUUUAUAUUAAUAUUAAUAAAACGAGAAGGCACAUUUU [JMF 9] (puzzle: Exclusion 1)	–	–	apparent KD of MS2 coat protein [2]: 28.4 nM; apparent KD of MS2 coat protein [1]: 25.4 nM; apparent KD of MS2 coat protein [3]: 29.5 nM
CCAUAGGGAGGAUAUCCAAUAUAUGACAUGAGGAUCACCCAUGUUUCCACUCGUACCUCCGGAGAAGGCCCAUACC [Ex5 #9] (Eterna round: R97, puzzle: Exclusion 5)	22	27	–
UAAAAGGGAGGAUAUACUUGAGGAUCACCCAAGUGAUCCAGACCCUGAACGGUCUAUAGUAGAAGGCCCAAUAA [Teinma] (Eterna round: R97, puzzle: Exclusion 3)	152	58	–
ACAGGUGCAGGAUAUACAUGAGGAUCACCCAUGUAGAUCAACCAGCGAUAGCUGGAAUGUAGAAGGGCACCUGU [E3/5-D1] (Eterna round: R97, puzzle: Exclusion 3)	94.4	18.5	–
GAUCACUGAGGAUAUACACAGAUACAAAGUAUCUGACCGUGACAUGAGGAUCACCCAUGUAGAAGGCAGAGGUC [Omei Ex2 B1] (Eterna round: R97, puzzle: Exclusion 2)	384	47.2	–
AACAAUAAGGAGGAUAUCGUAUCGGAAACGAUACGAGAAGGCUUAACAUGAGGAUCACCCAUGUUCCUCAAUAA [Fiskers Ex 6 - 23] (puzzle: Exclusion 6)	–	–	apparent KD of MS2 coat protein [1]: 33.1 nM
GGUCAGAUGGUAGGAUAUUCAUAUCGAGUGACCCUUUCAUAACAUGAGGAUCACCCAUGUCGGUGGGAGAAGGGCCGUACGGCG [salish99_ExNG02_R04_014] (Eterna round: R96, puzzle: Exclusion NG 2)	26.9	50.7	apparent KD of MS2 coat protein [4]: 29.3 nM
GAGGCUAAAGGAUAUACAUGAGGAUCACCCAUGUGGAGGAAGGUUAGAUGAGGAGAAGGUAGAAGGUUAGGCGG [JR_Exclu3_Sub094] (puzzle: Exclusion 3)	–	–	apparent KD of MS2 coat protein [1]: 31.1 nM
UGUUAGAUGGUAGGAUAUCCAUAUCGAGUGACCCUUUCAUAACAUGAGGAUCACCCAUGUCGGUGGGAGAAGGGCCGUAUGGUG [salish99_ExNG02_R04_031] (Eterna round: R96, puzzle: Exclusion NG 2)	18	22.7	apparent KD of MS2 coat protein [4]: 15.8 nM
AAGCAUUGCCAAAGGUAGUGCUUUACAUGAGGAUCACCCAUGUAGGAUAUGGUAGGCAAAGCUUACCAGAAGGACAUGAUAAUU [Mat - Exclusion NG 3 - Mod of JL - D13] (Eterna round: R96, puzzle: Exclusion NG 3)	151	47.9	apparent KD of MS2 coat protein [4]: 47.4 nM
CCGUGCACGCUGCGGUCCUACAUGAGGAUCACCCAUGUGGUCCGGUGGCGUGGGUCGCCGGACUUGGCUCGUCUUGU [salish99_S_TOV1_R5_017] (Eterna round: R97, puzzle: Sensor, turn-off variant 1)	35.1	37.6	–
GAUUAACAUGAGGAUCACCCAUGUGAGGAUAUGGAAUGGCUCAUUGUCUGAUUUCCUUCUAGAAGGCACAUCUU [1986#4c] (Eterna round: R97, puzzle: Exclusion 1)	72.2	63.3	–
CUUAAGGCAGGAUAUGCUGUUUGUGACAUGAGGAUCACCCAUGUGAUGCAGUUUGGGUGUGCAGAAGGGCCUGAGU [JR_E5_Sub032] (puzzle: Exclusion 5)	–	–	apparent KD of MS2 coat protein [2]: 96.4 nM; apparent KD of MS2 coat protein [1]: 71.5 nM; apparent KD of MS2 coat protein [3]: 131 nM
GAGUGUUGAGGAUAUACAUGAGGAUCACCCAUGUGCUUCAGCUAGGAGACUAGCAUUGGUAGAAGGCAGUACUC [Mod of lroppy 9 - Jieux - Exclusion 3] (Eterna round: R97, puzzle: Exclusion 3)	48.3	37.1	–
ACCUAUGAGGAGGAUAUACGGUGCGAAAGGAAGGUAGAAGGCUUCACAUGAGGAUCACCCAUGUCGAUAAGCGA [EX6 #85] (Eterna round: R97, puzzle: Exclusion 6)	27.7	23.3	–
AGUAACAGAGGAUAUACUAUUUUAUGUGUUUAUUAUUUUGAACAUGAGGAUCACCCAUGUAGAAGGCUGAAUAA [JMF 91] (puzzle: Exclusion 2)	–	–	apparent KD of MS2 coat protein [1]: 27.2 nM
